The results in this text go back to patent US6884600.

A value given as a limit tells only on which side of the number the result lay.

Test [1] has as its target myosin from chicken gizzard, dephosphorylated form (chicken) (UniProt P10587). Nature of the test: co-sedimentation with M21 in excess (10-50 µM M21, 1 µM myosin), Coomassie-stained gel.
The target in test [2] is PP1GL, glycogen-associated form of PP1 in rat hepatic glycogen-protein particles (rat). Description: cell-based or functional assay.
Test [3] addresses myosin from chicken gizzard, dephosphorylated form (chicken) (UniProt P10587). Nature of the test: co-sedimentation, 30 nM PP1M with 1 µM myosin.

Chain of myosin from chicken gizzard, dephosphorylated form (chicken) (P10587 2-1979, chain 1 of 3): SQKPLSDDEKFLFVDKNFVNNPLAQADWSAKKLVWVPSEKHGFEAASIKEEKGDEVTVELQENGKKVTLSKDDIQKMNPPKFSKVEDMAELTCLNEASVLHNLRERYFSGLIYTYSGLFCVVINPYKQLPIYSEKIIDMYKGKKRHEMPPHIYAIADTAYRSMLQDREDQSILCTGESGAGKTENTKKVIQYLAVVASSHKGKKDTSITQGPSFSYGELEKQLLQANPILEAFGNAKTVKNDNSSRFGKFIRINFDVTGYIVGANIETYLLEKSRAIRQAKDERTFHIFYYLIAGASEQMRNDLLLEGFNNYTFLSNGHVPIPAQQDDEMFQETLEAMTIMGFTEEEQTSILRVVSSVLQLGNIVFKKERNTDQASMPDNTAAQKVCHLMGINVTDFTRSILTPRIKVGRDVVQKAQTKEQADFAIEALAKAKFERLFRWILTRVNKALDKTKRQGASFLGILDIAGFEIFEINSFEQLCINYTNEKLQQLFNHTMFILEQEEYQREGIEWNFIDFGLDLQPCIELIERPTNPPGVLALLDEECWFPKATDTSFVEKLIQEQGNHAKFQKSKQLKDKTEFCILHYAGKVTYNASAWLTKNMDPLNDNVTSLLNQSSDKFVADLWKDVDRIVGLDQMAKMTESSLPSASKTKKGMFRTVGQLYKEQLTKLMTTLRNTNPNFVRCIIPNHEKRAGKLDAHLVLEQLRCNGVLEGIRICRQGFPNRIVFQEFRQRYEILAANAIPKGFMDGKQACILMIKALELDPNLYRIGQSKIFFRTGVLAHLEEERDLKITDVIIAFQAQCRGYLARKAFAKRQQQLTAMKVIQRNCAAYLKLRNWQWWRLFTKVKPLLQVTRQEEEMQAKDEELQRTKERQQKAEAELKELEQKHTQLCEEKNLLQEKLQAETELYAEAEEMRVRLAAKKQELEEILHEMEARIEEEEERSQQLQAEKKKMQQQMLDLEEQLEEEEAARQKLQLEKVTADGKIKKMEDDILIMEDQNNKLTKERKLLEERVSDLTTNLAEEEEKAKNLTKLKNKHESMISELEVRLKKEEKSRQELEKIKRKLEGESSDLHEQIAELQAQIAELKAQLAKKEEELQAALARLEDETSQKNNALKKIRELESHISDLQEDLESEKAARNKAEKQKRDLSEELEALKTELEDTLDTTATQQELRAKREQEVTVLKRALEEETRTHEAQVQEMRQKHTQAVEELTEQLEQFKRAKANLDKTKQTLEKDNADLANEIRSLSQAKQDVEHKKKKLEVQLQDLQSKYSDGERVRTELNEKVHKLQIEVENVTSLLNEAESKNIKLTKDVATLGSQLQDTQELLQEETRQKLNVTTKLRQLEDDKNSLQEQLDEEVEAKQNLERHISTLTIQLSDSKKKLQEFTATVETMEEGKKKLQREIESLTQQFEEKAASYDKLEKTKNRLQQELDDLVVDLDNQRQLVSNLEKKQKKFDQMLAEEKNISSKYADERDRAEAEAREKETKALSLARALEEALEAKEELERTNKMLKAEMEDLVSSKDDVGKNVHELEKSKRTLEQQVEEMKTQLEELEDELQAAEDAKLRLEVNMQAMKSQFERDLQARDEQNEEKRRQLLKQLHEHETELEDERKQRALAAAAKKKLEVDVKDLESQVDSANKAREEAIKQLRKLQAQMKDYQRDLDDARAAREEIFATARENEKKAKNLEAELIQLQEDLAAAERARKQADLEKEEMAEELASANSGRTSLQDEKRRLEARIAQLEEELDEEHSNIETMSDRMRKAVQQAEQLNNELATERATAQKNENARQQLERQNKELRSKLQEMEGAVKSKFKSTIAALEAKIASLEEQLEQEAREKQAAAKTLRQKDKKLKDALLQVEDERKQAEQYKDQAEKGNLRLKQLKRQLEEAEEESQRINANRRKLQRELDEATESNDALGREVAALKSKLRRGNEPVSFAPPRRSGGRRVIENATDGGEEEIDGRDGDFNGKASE
Chain of myosin from chicken gizzard, dephosphorylated form (chicken) (P02612 2-172, chain 2 of 3, further chain): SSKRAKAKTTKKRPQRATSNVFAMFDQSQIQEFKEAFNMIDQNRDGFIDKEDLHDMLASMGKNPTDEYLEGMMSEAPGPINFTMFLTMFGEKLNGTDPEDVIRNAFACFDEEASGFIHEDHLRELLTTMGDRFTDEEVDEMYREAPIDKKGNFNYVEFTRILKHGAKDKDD
Chain of myosin from chicken gizzard, dephosphorylated form (chicken) (P02607 2-151, chain 3 of 3, further chain): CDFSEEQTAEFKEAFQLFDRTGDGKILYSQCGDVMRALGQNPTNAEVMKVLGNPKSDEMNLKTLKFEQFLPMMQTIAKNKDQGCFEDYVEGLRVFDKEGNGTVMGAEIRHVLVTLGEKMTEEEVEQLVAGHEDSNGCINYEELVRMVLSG
Chain of PP1M, myosin-associated form of PP1 from chicken gizzard (P62207 2-327): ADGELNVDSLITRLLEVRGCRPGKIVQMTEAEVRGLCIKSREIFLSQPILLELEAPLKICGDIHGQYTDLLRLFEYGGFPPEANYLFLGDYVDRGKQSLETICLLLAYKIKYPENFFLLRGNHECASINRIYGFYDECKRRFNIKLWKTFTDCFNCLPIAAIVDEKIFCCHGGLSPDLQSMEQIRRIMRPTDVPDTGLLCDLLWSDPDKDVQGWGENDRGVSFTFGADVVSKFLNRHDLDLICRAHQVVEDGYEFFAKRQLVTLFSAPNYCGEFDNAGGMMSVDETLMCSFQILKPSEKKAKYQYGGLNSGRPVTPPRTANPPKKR
Chain of PP1M, myosin-associated form of PP1 from chicken gizzard (chain): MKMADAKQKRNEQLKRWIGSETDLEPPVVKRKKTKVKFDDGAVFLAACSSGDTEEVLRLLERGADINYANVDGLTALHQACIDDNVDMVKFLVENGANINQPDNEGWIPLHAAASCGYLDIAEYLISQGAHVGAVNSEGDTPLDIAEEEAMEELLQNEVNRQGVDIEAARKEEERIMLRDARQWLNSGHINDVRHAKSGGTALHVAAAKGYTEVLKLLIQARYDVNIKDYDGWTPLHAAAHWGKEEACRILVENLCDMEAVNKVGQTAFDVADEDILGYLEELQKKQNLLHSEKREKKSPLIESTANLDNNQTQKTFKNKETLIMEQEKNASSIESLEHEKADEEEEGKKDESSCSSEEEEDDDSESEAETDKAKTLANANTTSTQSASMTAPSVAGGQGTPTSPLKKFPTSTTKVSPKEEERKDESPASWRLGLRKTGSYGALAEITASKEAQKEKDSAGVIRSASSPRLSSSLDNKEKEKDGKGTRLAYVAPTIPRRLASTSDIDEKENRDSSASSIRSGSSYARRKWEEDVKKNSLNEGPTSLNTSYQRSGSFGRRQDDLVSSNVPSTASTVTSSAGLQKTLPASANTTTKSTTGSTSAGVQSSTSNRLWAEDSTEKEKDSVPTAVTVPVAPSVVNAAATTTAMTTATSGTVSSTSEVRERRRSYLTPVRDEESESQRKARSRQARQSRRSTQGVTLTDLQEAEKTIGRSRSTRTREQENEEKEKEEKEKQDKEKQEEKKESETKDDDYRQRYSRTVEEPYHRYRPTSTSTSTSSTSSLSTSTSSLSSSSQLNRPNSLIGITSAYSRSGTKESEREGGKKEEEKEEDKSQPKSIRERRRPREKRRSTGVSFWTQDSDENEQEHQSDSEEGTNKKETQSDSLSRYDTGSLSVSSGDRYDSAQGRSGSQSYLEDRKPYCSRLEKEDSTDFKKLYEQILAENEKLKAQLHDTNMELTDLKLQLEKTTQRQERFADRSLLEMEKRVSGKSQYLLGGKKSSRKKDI

In the case of “M21 subunit of chicken gizzard PP1M, full length (M1-K186)”, the moles of M21 subunit bound to each myosin dimer (mol/mol myosin dimer) in test [1] was over 20.

In turn, “GM[G63-N75] variant with Val 66 changed to Ala (peptide)” displayed an effectiveness of disruption of the PP1-GL complex relative to wild type GM[63-75] in test [2] of 100 fold.

Take “PP1M, myosin-associated form of PP1 from chicken gizzard (from UniProt P62207 2-327) (enzyme)”: in test [3], the percent of myosin P-light chain phosphatase recovered in the myosin pellet was 85%.
